Data set [1] addresses T1, UraA (Escherichia coli, UniProt P0AGM7).
T1 construct: full-length ORF, expressed in E. coli MC1061 from pBXC3GH (tag removed with HRV-3C protease), decylmaltoside-solubilized; C-terminal biotinylated AVI-tag for SPA; WT and G112P monomeric, P330G dimeric, G320P both fractions
Put plainly: differential scanning fluorimetry (CPM dye). The data set is classed as binding. As to conditions: 20 mM Hepes pH 7.5, 150 mM NaCl, 0.2% DM. A general note: DSF heats the sample and reads unfolding from a dye or from intrinsic fluorescence.

Data set [2] addresses uracil. Kind of data set: scintillation proximity assay (homologous competition with 3H-uracil).
For data set [3], the target named is T2, wild type UraA (E. coli uracil permease) (E. coli, UniProt P0AGM7).
T2 construct: uracil permease UraA, E. coli; open reading frame amplified from genomic DNA of E. coli MC1061; Membrane protein in 0.2% decylmaltoside; elutes as monomers and dimers; A few residues of the FX cloning sites and of the 3C site probably remain after cleavage (surmised); also called UraA(WT); source: E. coli MC1061 (pBXC3GH), purified (decylmaltoside-solubilised, Ni-NTA, eluted with HRV-3C protease, …)
Kind of data set: differential scanning fluorimetry; UraA variants 0.1 mg/mL in 20 mM Hepes pH 7.5, 150 mM NaCl, 0.2% DM, without uracil, in absence and presence of Sy45; CPM dye, 25 to 90 °C at 2 °C/min. To be noted: both partners purified.

In the case of `O=c1cc[nH]c(=O)[nH]1` [uracil], the “Tm with 1 mM uracil (apo Tm 54.2 ± 0.2 °C)” value in data set [1] came out at 64.1 ± 0.1 °C. For the molecule “wild type UraA (E. coli uracil permease) (from UniProt P0AGM7) G320P”, the values for the Kd in data set [2] (absence of Sy45) and in data set [2] (presence of Sy45 (panel titled UraA(G320P)-Sy45)) were 35 nM and 144 nM, respectively.

“wild type UraA (E. coli uracil permease) (from UniProt P0AGM7) P330G”: the Kd (usually the constant that tells how readily two partners part at equilibrium) in data set [2] (absence of Sy45) is 7 nM.

B1: sybody Sy45 (synthetic nanobody) (VHH)
VHH: QVQLVESGGGSVQAGGSLRLSCAASGNIAYIHYLGWFRQAPGKEREGVAALSTTLGNTYYADSVKGRFTVSLDNAKNTVYLQMNSLKPEDTALYYCAAAYFGYSSPLAHERYMYWGQGTQVTVSA
notes: sybody with a convex paratope, selected from a synthetic library against wild type UraA; also called synthetic single-domain antibody; conformational probe
Regarding B1, the “thermostabilization (increase of melting temperature)” value in data set [3] was determined as 16.7 °C.
